Experimental findings from US7423115B2, “ARTS C-terminus fragments and mimetics thereof” (SimeTRA Pharm Ltd, priority 2005, dated 2008) are described below.

Test [1] concerns the target T1, Bir3 domain of XIAP protein (Homo sapiens, UniProt P98170).
T1 construct: vectors expressing either the Bir3 domain of XIAP protein fused to GST; expressed in transfected cells; host or cells: COS-7
The test can be described thus: Co-immunoprecipitation of myc-tagged ARTS C-terminus with GST-Bir3 on glutathione beads in transfected, staurosporine-treated COS-7 cells. The class given is binding. Conditions: COS-7 cells co-transfected, 1.25 μM staurosporine for 1 hr, Western blot with anti-ARTS C-terminus antibody. The method, then: COS-7 cells were transfected with 2.5 μg each of vectors expressing either the Bir3 domain of XIAP protein fused to GST or the GST alone, together with the myc-tagged ARTS C-terminus or myc-ARTS alone. After 40 hr, cells were exposed to 1.25 μM staurosporine for 1 hr and then washed in phosphate-buffered saline (PBS), scraped off the dish, pelleted, resuspended in 20 μL lysis buffer (150 mM NaCl, 50 mM Tris-HCl (pH 8), 1% NP-40, 0.5% deoxycholate acid, protease inhibitors (Mini Complete®, Roche Applied Science, Indianapolis, Ind.), and incubated on ice for 20 min.
Lysis buffer was added to lysate containing 400 mcg total protein, to a final volume of 1 ml. 100 mcL of 20% glutathione beads was added, and the mixture was rotated at 7.5° C. overnight. Beads were centrifuged at 400×g for 2 min and washed 3 times in 1 ml RIPA buffer (0.1% SDS, 1% NP-40, 0.5% deoxycholate acid, 150 mM NaCl, 50 mM Tris-HCl (pH 8), protease inhibitors). The pellet was boiled for 5 min in an additional 25 mcL RIPA buffer and 10 mcL 4× loading buffer, then the sample was electrophoresed on an SDS poly-acrylamide gel, transferred to PVDF membrane, and subjected to Western blot using monoclonal antibody directed against the ARTS C-terminus. Blots were developed with the West Pico kit (Pierce Biotechnology, Rockford, Ill.).
On the technique in general: In western blotting, separated proteins are transferred to a membrane and probed.

Another test concerns cells. The test can be described thus: Induction of apoptosis by the ARTS C terminus. The class given is cell-based. The method, then: Cells were incubated for 24 hours with no peptide (negative control) or with 100 micromolar (mcM) peptides corresponding to residues 1-9 (“pep1”), 10-18 (“pep2”), or 19-27 (“pep3”) of the ARTS C-terminus Apoptotic cells were detected using DAPI staining or TUNEL. For TUNEL assays, the cells were fixed and permeabilized. Apoptosis levels were determined using the TUNEL In situ™ cell death detection TMR kit (Roche) according to the manufacturer's protocol. All samples were coded, and experiments were performed in a blind manner.

T1 sequence (P98170 265-330 limits assumed): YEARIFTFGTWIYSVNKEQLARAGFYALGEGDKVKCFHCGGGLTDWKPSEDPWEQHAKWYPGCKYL

As to “YGPSLRLLAPPGAVKGTGQEHQGQGCH [ARTS C terminus]”, the “Interaction with GST-Bir3 domain of XIAP (co-precipitation with glutathione beads)” value in test [1] is “co-precipitated”. The Induction of apoptosis result in the test on cells was “sufficient for induction of apoptosis”.
